Experimental data reported in publication PMC7142922.

Target: T1, TyrR (Escherichia coli DH5alpha) (UniProt P07604)
T1 sequence: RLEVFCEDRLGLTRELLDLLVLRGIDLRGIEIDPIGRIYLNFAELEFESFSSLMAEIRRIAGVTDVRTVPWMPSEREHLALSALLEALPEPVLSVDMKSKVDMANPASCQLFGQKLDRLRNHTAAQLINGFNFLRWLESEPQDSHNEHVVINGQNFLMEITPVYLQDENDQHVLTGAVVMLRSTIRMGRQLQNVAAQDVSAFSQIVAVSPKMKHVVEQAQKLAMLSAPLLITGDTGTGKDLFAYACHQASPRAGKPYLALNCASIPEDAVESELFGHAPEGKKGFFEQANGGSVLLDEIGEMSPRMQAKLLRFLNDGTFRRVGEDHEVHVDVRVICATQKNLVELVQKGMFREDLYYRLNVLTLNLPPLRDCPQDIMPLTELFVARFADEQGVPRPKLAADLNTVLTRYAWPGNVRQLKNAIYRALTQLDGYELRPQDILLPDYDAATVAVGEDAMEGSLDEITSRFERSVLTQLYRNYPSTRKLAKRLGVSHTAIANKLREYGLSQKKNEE
Assay: EMSA
Details: TyrR EMSA: 50 mM Tris-HCl pH 7.8, 50 mM NaCl, 3 mM Mg acetate, 0.1 mM EDTA, 0.1 mM DTT, 25 ug/mL BSA, 0.1 mM Phe, 0.1 mM ATP, ~15 nM DNA, 37 C 30 min, 2% …

CTGCAGCACTATCACTCTTTTGTCTTGGTAAGAATAATGGTATGTGACTGCGAATGCACCTGCTTTGTGCAGGGGTGATGACGAGTTGCGTAAAAAGAAAGCACTTGTAAACCCTTTTAGCATTACTCACTTTATTTTGCATAGCATGTGATGTGCGGAGAAATCTTAGCAGTGAGCAGACCAATAAATAGAATATTCAGAACGGTGTTATTTTATTGACATCGTCAGCGGGGGAGGCGTTTAATTTATATTCGGATGTCGTAAAGCTTAA (double strand) [deltaTB fragment without TyrR boxes (274 bp)]
binding: no binding
